Test results published in paper PMC11601148, “Effects of proline substitution/inclusion on the nanostructure of a self-assembling β-sheet-forming peptide†” (RSC Advances, 2024).

B1: FEFKFEFK (peptide)
peptide: FEFKFEFK
notes: also called F8; source: synthetic peptide, bought: Biomatik LLC (HCl salt, >90% purity)
B2: FEFEPKFKF (peptide)
peptide: FEFEPKFKF
notes: KPE with the polar residues shuffled: glutamic acids on one side of the proline, lysines on the other; source: synthetic peptide, bought: Biomatik LLC (HCl salt, >90% purity)
B3: FEFKPEFKF (peptide)
peptide: FEFKPEFKF
notes: FP with one more phenylalanine at the C-terminal end; also called KEP; source: synthetic peptide, bought: Biomatik LLC (HCl salt, >90% purity)

Key:
[1] = biological target: the molecule itself; experiment: ITC; NaOH (0.0025, 0.0125, 0.025 M) titrated into peptide at 0.1, 0.5 and 1 mg/mL in water, 25 °C; the energy change on deprotonation is read as a sign of self-assembly, no binding constant is fitted
[2] = biological target: the molecule itself; experiment: SAXS + WAXS; peptide samples at 5 and 10 mg/mL in quartz capillaries, beamline I22 at Diamond Light Source, water as background

Protein | binding result [1] | binding result [2]
B1 | binds | 
B2 |  | binds
B3 | binds | 
